Laboratory results taken from PMC7445770.

Target: RNA polymerase (RNAP), core enzyme without sigma factor (E. coli (endogenous in the cell-free extract))

Row | Kσ28: dissociation constant obtained by fitting a nonlinear ODE model to GFP/mRNA time-series responses of the pTar-tetO combinatorial promoter in E. coli TX-TL cell-free extract (29°C) [pM] | Kσ70: dissociation constant obtained by fitting a nonlinear ODE model to GFP/mRNA time-series responses of the pTar-tetO combinatorial promoter in E. coli TX-TL cell-free extract (29°C) [pM] | Substance
1 | 5.3 | – | sigma factor 28 (from UniProt P0AEM6 1-239) (natural protein)
2 | – | 0.0018 | sigma factor 70 (from UniProt P00579 1-613) (natural protein)
